According to patent US20080220450A1 (DANISCO US INC GENENCOR DIVISION, published 2008):

Target: HLA-DR2(15) (human)
Experiment: competition assay against a standard peptide on purified HLA class II

B1: B. lentus subtilisin epitope peptide, amino acids 160-174 (peptide, UniProt P29600 160-174, looked up)
peptide: SYPARYANAMAVGAT
notes: Synthetic 15-mer; also called peptide position #54
- IC50: 127 nM
